In patent US20150210998A1:
One block for each substance: values may come before it.

Legend:
[1] = biological target: His6-E6AP ligase (full-length, baculovirus-expressed) (human) (UniProt Q05086); experiment: non-competitive inhibition with respect to [UbcH7]o of E6AP chain formation
[2] = biological target: GST-E6AP ligase (wild-type, bacterially expressed fusion protein) (human) (UniProt Q05086); experiment: inhibition of GST-E6AP-catalyzed 125I-polyubiquitin chain formation
[3] = biological target: GST-E6AP ligase (wild-type, bacterially expressed fusion protein) (human) (UniProt Q05086); experiment: inhibition of GST-E6AP-catalyzed 125I-polyubiquitin chain formation, nonlinear hyperbolic regression
[4] = biological target: GST-E6AP ligase (wild-type, bacterially expressed fusion protein) (human) (UniProt Q05086); experiment: calculated from the Ki of inhibition of chain formation
[5] = biological target: His6-E6AP ligase (full-length, baculovirus-expressed) (human) (UniProt Q05086); experiment: cell-based or functional assay
GST-E6APR626A (human) = GST-E6APR626A (human) (UniProt Q05086); experiment: cell-based or functional assay
GST-E6APY533A (human) = GST-E6APY533A (human) (UniProt Q05086); experiment: cell-based or functional assay
[6] = biological target: His6-E6AP ligase (full-length, baculovirus-expressed) (human) (UniProt Q05086); experiment: activation kinetics of His6-E6AP-catalyzed 125I-polyubiquitin chain formation (non-essential activator, double reciprocal plot)
[7] = biological target: His6-E6AP ligase (full-length, baculovirus-expressed) (human) (UniProt Q05086); experiment: concentration dependence of inhibition of E6AP-catalyzed polyubiquitin chain formation
[8] = biological target: His6-E6AP ligase (full-length, baculovirus-expressed) (human) (UniProt Q05086); experiment: non-competitive inhibition with respect to [UbcH7]o of His6-E6AP chain formation

E6AP-HectC820A (thrombin-processed), sequence (Q05086 473-875 C843A limits assumed): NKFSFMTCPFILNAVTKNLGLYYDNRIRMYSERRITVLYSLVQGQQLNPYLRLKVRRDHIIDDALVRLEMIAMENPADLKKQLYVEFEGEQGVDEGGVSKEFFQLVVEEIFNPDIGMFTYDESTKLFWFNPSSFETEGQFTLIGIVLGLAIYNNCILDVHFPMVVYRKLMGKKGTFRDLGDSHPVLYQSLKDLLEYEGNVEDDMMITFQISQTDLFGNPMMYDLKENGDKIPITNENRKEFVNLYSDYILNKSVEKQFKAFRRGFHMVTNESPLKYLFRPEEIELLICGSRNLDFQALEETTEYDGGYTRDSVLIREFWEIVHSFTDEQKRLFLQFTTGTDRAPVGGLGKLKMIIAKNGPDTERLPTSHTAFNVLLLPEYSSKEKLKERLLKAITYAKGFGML
GST-E6AP-HectC820A, sequence (Q05086 473-875 C843A): as the sequence (Q05086 473-875 C843A limits assumed) above
GST-E6APY533A (human), sequence (Q05086 other isoform, or with tags, fused parts or gaps): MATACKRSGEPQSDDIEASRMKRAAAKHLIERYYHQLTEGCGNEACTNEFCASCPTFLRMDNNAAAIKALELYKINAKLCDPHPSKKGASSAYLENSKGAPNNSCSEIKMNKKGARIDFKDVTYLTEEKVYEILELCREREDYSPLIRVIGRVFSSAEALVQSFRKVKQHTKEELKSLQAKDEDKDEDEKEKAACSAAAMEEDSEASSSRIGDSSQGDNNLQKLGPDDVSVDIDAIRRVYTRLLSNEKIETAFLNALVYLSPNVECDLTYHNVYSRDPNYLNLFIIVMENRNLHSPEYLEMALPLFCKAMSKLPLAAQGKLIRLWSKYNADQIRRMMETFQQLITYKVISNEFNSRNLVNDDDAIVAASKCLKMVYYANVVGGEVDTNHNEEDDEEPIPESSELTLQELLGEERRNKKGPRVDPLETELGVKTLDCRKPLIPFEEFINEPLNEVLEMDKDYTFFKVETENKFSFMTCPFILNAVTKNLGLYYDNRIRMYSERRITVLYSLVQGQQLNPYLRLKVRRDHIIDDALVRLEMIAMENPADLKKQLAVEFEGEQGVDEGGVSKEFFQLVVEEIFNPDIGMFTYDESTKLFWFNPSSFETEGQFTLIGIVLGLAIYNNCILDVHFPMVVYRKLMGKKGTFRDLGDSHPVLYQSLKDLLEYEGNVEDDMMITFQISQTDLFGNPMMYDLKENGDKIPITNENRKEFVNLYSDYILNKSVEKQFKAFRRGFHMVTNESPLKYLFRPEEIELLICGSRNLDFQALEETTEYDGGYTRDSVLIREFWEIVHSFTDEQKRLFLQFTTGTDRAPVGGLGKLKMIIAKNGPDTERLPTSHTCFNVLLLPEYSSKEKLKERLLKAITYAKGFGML
GST-E6APR626A (human), sequence (Q05086 other isoform, or with tags, fused parts or gaps): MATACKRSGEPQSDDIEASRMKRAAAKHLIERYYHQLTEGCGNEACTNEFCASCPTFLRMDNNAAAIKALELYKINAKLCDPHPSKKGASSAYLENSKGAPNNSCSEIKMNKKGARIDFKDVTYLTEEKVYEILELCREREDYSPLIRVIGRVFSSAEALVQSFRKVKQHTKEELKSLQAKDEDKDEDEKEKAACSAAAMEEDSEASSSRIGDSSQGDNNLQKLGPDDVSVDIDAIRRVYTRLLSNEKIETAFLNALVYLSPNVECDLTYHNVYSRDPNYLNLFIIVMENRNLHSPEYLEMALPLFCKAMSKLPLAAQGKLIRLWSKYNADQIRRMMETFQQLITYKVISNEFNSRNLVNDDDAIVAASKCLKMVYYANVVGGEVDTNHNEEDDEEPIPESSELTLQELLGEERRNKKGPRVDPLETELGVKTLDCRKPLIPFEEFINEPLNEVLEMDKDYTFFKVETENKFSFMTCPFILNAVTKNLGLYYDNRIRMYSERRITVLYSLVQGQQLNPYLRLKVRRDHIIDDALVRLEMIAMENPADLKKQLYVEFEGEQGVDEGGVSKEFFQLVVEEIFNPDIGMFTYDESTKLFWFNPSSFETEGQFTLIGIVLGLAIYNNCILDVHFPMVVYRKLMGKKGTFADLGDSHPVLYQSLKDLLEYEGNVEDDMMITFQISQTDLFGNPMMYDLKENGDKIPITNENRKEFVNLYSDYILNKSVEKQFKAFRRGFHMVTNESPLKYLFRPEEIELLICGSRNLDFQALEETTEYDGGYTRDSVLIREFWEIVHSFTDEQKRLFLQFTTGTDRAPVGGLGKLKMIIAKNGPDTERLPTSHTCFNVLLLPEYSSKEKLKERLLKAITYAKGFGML

Substance: E6(HPV16)Ct C-terminal domain (from UniProt P03126 89-158)
Ki [1]: 4 µM

Substance: GST-E6AP-HectC820A (from UniProt Q05086 450-852)
Ki [2]: 31 µM

Substance: HPV16 E6 protein (recombinant, full-length) (from UniProt P03126 1-158)
stimulation in E6AP ligase activity at saturating E6 protein [5]: 14 fold | increase in rate of 125I-polyubiquitin chain formation with 20 nM E6 (GST-E6APR626A (human)): 13 fold | increase in rate of 125I-polyubiquitin chain formation with 20 nM E6 (GST-E6APY533A (human)): 8 fold | Kd [6]: 0.0015 µM

Substance: E6(HPV16)Δ91 N-terminal domain (from UniProt P03126 1-91)
Ki [7]: 4 µM | Ki [8]: 6 µM

Next, values leading:

Ki [2]: 27 µM
Substance: E6AP-HectC820A (thrombin-processed) (from UniProt Q05086 450-852)

Ki [3]: 19 µM | ΔGbinding [4]: -6.4 kcal/mol
Substance: E6APΔ495 (thrombin-processed) (from UniProt Q05086 1-495)

Ki [3]: 12 µM | ΔGbinding [4]: -6.7 kcal/mol
Substance: GST-E6APΔ495 (from UniProt Q05086 1-495)
